According to US20220332804A1 (CSL INNOVATION, published 2022):
Positions count from the first letter of the chain named.

How the values were obtained:
Assay in all cases: SPR, antibody captured, C2 as analyte;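 also: biacore at 37 °C, anti-C2 mAbs held by immobilised goat anti-human IgG, C2 alanine or serine mutants injected, double-referenced sensorgrams fitted to a 1:1 kinetic or steady-state model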
human C2 E275A = biological target: T1, human C2 E275A (human, UniProt P06681 21-752)
T1 sequence: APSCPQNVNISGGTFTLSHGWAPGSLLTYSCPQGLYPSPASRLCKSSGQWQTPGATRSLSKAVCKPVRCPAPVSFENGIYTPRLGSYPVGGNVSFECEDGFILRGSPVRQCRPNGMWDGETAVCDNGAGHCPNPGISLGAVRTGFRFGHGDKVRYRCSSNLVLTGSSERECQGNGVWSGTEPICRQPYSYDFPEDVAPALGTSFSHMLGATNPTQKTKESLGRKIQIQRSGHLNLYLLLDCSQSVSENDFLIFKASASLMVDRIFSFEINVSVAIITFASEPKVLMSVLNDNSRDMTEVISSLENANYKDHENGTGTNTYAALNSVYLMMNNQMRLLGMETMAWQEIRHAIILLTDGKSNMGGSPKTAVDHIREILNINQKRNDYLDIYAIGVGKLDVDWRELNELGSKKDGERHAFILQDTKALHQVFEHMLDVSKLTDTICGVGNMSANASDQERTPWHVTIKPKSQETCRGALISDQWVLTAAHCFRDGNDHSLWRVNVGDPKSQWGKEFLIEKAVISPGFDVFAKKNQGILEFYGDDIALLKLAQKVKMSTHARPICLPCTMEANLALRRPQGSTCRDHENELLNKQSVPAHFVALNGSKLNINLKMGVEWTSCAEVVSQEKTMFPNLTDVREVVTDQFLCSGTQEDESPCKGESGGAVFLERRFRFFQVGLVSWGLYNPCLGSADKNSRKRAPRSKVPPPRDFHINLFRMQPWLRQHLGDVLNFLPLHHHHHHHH

human C2 E433A = biological target: T2, human C2 E433A (human, UniProt P06681 21-752)
T2 sequence: T1 sequence with A255E, E413A

human C2 M452A = biological target: T3, human C2 M452A (human, UniProt P06681 21-752)
T3 sequence: T1 sequence with A255E, M432A

human C2 V455A = biological target: T4, human C2 V455A (human, UniProt P06681 21-752)
T4 sequence: T1 sequence with A255E, V435A

B1: RF16-242 (antibody, human IgG4 S228P, lambda, V domains shown)
VH: EVQLLQSGAEVKKPGESLKISCKGSGYSFTSYWIGWVRQMPGKGLEWMGIIYPGDSDTRYSPSFQGQVTISADKSISTAYLQWSSLKASDTAMYYCARRGHYGDYFDYWGQGTLVTVSS
VL: SYELTQPPSVSVSPGQTARITCSGDALPKKYAYWYHQKSGQAPVLVIYEDRRRPSEIPERFSGSSSGTMATLTITGAQVEDEGVYFCYSRDRAGNQRVFGGGTQLTVLG
notes: pH-dependent anti-C2 antibody from a phage display library
Human C2 E275A
  Kd: 42.8 nM
Human C2 E433A
  Kd: 3 nM
Human C2 M452A
  Kd: 5.3 nM
Human C2 V455A
  Kd: 5.9 nM
